Measurements taken from patent publication US20230250154A1.

Molecular target: Protease Mixtures
Assay: cell-based or functional assay

B1: Variant A2M, bait region SEQ ID NO 128, P01023 24-1474 (protein)
chain: SVSGKPQYMVLVPSLLHTETTEKGCVLLSYLNETVTVSASLESVRGNRSLFTDLEAENDVLHCVAFAVPKSSSNEEVMFLTVQVKGPTQEFKKRTTVMVKNEDSLVFVQTDKSIYKPGQTVKFRVVSMDENFHPLNELIPLVYIQDPKGNRIAQWQSFQLEGGLKQFSFPLSSEPFQGSYKVVVQKKSGGRTEHPFTVEEFVLPKFEVQVTVPKIITILEEEMNVSVCGLYTYGKPVPGHVTVSICRKYSDASDCHGEDSQAFCEKFSGQLNSHGCFYQQVKTKVFQLKRKEYEMKLHTEAQIQEEGTVVELTGRQSSEITRTITKLSFVKVDSHFRQGIPFFGQVRLVDGKGVPIPNKVIFIRGNEANYYSNATTDEHGLVQFSINTTNVMGTSLTVRVNYKDRSPCYGYQWVSEEHEEAHHTAYLVFSPSKSFVHLEPMSHELPCGHTQTVQAHYILNGGTLLGLKKLSFYYLIMAKGGIVRTGTHGLLVKQEDMKGHFSISIPVKSDIAPVARLLIYAVLPTGDVIGDSAKYDVENCLANKVDLSFSPSQSLPASHAHLRVTAAPQSVCALRAVDQSVLLMKPDAELSASSVYNLLPEKDLTGFPGPLNDQDDEDCINRHNVYINGITYTPVSSTNEKDMYSFLEDMGLKAFTNSKIRKPKMCPQLEQYEMHGPSELEGRGSEAIPMSIPTKEEEGLGSIPENFFGVVEEPHTKLRKYFPETWIWDLVVVNSAGVAEVGVTVPDTITEWKAGAFCLSEDAGLGISSTASLRAFQPFFVELTMPYSVIRGEAFTLKATVLNYLPKCIRVSVQLEASPAFLAVPVEKEQAPHCICANGRQTVSWAVTPKSLGNVNFTVSAEALESQELCGTEVPSVPEHGRKDTVIKPLLVEPEGLEKETTFNSLLCPSGGEVSEELSLKLPPNVVEESARASVSVLGDILGSAMQNTQNLLQMPYGCGEQNMVLFAPNIYVLDYLNETQQLTPEIKSKAIGYLNTGYQRQLNYKHYDGSYSTFGERYGRNQGNTWLTAFVLKTFAQARAYIFIDEAHITQALIWLSQRQKDNGCFRSSGSLLNNAIKGGVEDEVTLSAYITIALLEIPLTVTHPVVRNALFCLESAWKTAQEGDHGSHVYTKALLAYAFALAGNQDKRKEVLKSLNEEAVKKDNSVHWERPQKPKAPVGHFYEPQAPSAEVEMTSYVLLAYLTAQPAPTSEDLTSATNIVKWITKQQNAQGGFSSTQDTVVALHALSKYGAATFTRTGKAAQVTIQSSGTFSSKFQVDNNNRLLLQQVSLPELPGEYSMKVTGEGCVYLQTSLKYNILPEKEEFPFALGVQTLPQTCDEPKAHTSFQISLSVSYTGSRSASNMAIVDVKMVSGFIPLKPTVKMLERSNHVSRTEVSSNHVLIYLDKVSNQTLSLFFTVLQDVPVRDLKPAIVKVYDYYETDEFAIAEYNAPCSKDLGNADYKDDDDKGASHHHHHH
- Protease Inhibition (% of WT); Protease Mixtures, IGD Substrate: 125 % of WT

B2: Variant A2M, bait region SEQ ID NO 125, P01023 24-1474 (protein)
chain: SVSGKPQYMVLVPSLLHTETTEKGCVLLSYLNETVTVSASLESVRGNRSLFTDLEAENDVLHCVAFAVPKSSSNEEVMFLTVQVKGPTQEFKKRTTVMVKNEDSLVFVQTDKSIYKPGQTVKFRVVSMDENFHPLNELIPLVYIQDPKGNRIAQWQSFQLEGGLKQFSFPLSSEPFQGSYKVVVQKKSGGRTEHPFTVEEFVLPKFEVQVTVPKIITILEEEMNVSVCGLYTYGKPVPGHVTVSICRKYSDASDCHGEDSQAFCEKFSGQLNSHGCFYQQVKTKVFQLKRKEYEMKLHTEAQIQEEGTVVELTGRQSSEITRTITKLSFVKVDSHFRQGIPFFGQVRLVDGKGVPIPNKVIFIRGNEANYYSNATTDEHGLVQFSINTTNVMGTSLTVRVNYKDRSPCYGYQWVSEEHEEAHHTAYLVFSPSKSFVHLEPMSHELPCGHTQTVQAHYILNGGTLLGLKKLSFYYLIMAKGGIVRTGTHGLLVKQEDMKGHFSISIPVKSDIAPVARLLIYAVLPTGDVIGDSAKYDVENCLANKVDLSFSPSQSLPASHAHLRVTAAPQSVCALRAVDQSVLLMKPDAELSASSVYNLLPEKDLTGFPGPLNDQDDEDCINRHNVYINGITYTPVSSTNEKDMYSFLEDMGLKAFTNSKIRKPKMCPQLEQYEMHGPSELEGRGSIPENFFGVEAIPMSIPTSEDLVVQIVEEPHTKLRKYFPETWIWDLVVVNSAGVAEVGVTVPDTITEWKAGAFCLSEDAGLGISSTASLRAFQPFFVELTMPYSVIRGEAFTLKATVLNYLPKCIRVSVQLEASPAFLAVPVEKEQAPHCICANGRQTVSWAVTPKSLGNVNFTVSAEALESQELCGTEVPSVPEHGRKDTVIKPLLVEPEGLEKETTFNSLLCPSGGEVSEELSLKLPPNVVEESARASVSVLGDILGSAMQNTQNLLQMPYGCGEQNMVLFAPNIYVLDYLNETQQLTPEIKSKAIGYLNTGYQRQLNYKHYDGSYSTFGERYGRNQGNTWLTAFVLKTFAQARAYIFIDEAHITQALIWLSQRQKDNGCFRSSGSLLNNAIKGGVEDEVTLSAYITIALLEIPLTVTHPVVRNALFCLESAWKTAQEGDHGSHVYTKALLAYAFALAGNQDKRKEVLKSLNEEAVKKDNSVHWERPQKPKAPVGHFYEPQAPSAEVEMTSYVLLAYLTAQPAPTSEDLTSATNIVKWITKQQNAQGGFSSTQDTVVALHALSKYGAATFTRTGKAAQVTIQSSGTFSSKFQVDNNNRLLLQQVSLPELPGEYSMKVTGEGCVYLQTSLKYNILPEKEEFPFALGVQTLPQTCDEPKAHTSFQISLSVSYTGSRSASNMAIVDVKMVSGFIPLKPTVKMLERSNHVSRTEVSSNHVLIYLDKVSNQTLSLFFTVLQDVPVRDLKPAIVKVYDYYETDEFAIAEYNAPCSKDLGNADYKDDDDKGASHHHHHH
- Protease Inhibition (% of WT); Protease Mixtures, IGD Substrate: 150 % of WT

B3: Variant A2M, bait region SEQ ID NO 127, P01023 24-1474 (protein)
chain: SVSGKPQYMVLVPSLLHTETTEKGCVLLSYLNETVTVSASLESVRGNRSLFTDLEAENDVLHCVAFAVPKSSSNEEVMFLTVQVKGPTQEFKKRTTVMVKNEDSLVFVQTDKSIYKPGQTVKFRVVSMDENFHPLNELIPLVYIQDPKGNRIAQWQSFQLEGGLKQFSFPLSSEPFQGSYKVVVQKKSGGRTEHPFTVEEFVLPKFEVQVTVPKIITILEEEMNVSVCGLYTYGKPVPGHVTVSICRKYSDASDCHGEDSQAFCEKFSGQLNSHGCFYQQVKTKVFQLKRKEYEMKLHTEAQIQEEGTVVELTGRQSSEITRTITKLSFVKVDSHFRQGIPFFGQVRLVDGKGVPIPNKVIFIRGNEANYYSNATTDEHGLVQFSINTTNVMGTSLTVRVNYKDRSPCYGYQWVSEEHEEAHHTAYLVFSPSKSFVHLEPMSHELPCGHTQTVQAHYILNGGTLLGLKKLSFYYLIMAKGGIVRTGTHGLLVKQEDMKGHFSISIPVKSDIAPVARLLIYAVLPTGDVIGDSAKYDVENCLANKVDLSFSPSQSLPASHAHLRVTAAPQSVCALRAVDQSVLLMKPDAELSASSVYNLLPEKDLTGFPGPLNDQDDEDCINRHNVYINGITYTPVSSTNEKDMYSFLEDMGLKAFTNSKIRKPKMCPQLEQYEMHGPIPENFFGVSELEGRGSEAIPMSIPTEGEGEGEGVEEPHTKLRKYFPETWIWDLVVVNSAGVAEVGVTVPDTITEWKAGAFCLSEDAGLGISSTASLRAFQPFFVELTMPYSVIRGEAFTLKATVLNYLPKCIRVSVQLEASPAFLAVPVEKEQAPHCICANGRQTVSWAVTPKSLGNVNFTVSAEALESQELCGTEVPSVPEHGRKDTVIKPLLVEPEGLEKETTFNSLLCPSGGEVSEELSLKLPPNVVEESARASVSVLGDILGSAMQNTQNLLQMPYGCGEQNMVLFAPNIYVLDYLNETQQLTPEIKSKAIGYLNTGYQRQLNYKHYDGSYSTFGERYGRNQGNTWLTAFVLKTFAQARAYIFIDEAHITQALIWLSQRQKDNGCFRSSGSLLNNAIKGGVEDEVTLSAYITIALLEIPLTVTHPVVRNALFCLESAWKTAQEGDHGSHVYTKALLAYAFALAGNQDKRKEVLKSLNEEAVKKDNSVHWERPQKPKAPVGHFYEPQAPSAEVEMTSYVLLAYLTAQPAPTSEDLTSATNIVKWITKQQNAQGGFSSTQDTVVALHALSKYGAATFTRTGKAAQVTIQSSGTFSSKFQVDNNNRLLLQQVSLPELPGEYSMKVTGEGCVYLQTSLKYNILPEKEEFPFALGVQTLPQTCDEPKAHTSFQISLSVSYTGSRSASNMAIVDVKMVSGFIPLKPTVKMLERSNHVSRTEVSSNHVLIYLDKVSNQTLSLFFTVLQDVPVRDLKPAIVKVYDYYETDEFAIAEYNAPCSKDLGNADYKDDDDKGASHHHHHH
- Protease Inhibition (% of WT); Protease Mixtures, Collagen Substrate: 180 % of WT
- Protease Inhibition (% of WT); Protease Mixtures, IGD Substrate: 229 % of WT

B4: Variant A2M, bait region SEQ ID NO 126, P01023 24-1474 (protein)
chain: SVSGKPQYMVLVPSLLHTETTEKGCVLLSYLNETVTVSASLESVRGNRSLFTDLEAENDVLHCVAFAVPKSSSNEEVMFLTVQVKGPTQEFKKRTTVMVKNEDSLVFVQTDKSIYKPGQTVKFRVVSMDENFHPLNELIPLVYIQDPKGNRIAQWQSFQLEGGLKQFSFPLSSEPFQGSYKVVVQKKSGGRTEHPFTVEEFVLPKFEVQVTVPKIITILEEEMNVSVCGLYTYGKPVPGHVTVSICRKYSDASDCHGEDSQAFCEKFSGQLNSHGCFYQQVKTKVFQLKRKEYEMKLHTEAQIQEEGTVVELTGRQSSEITRTITKLSFVKVDSHFRQGIPFFGQVRLVDGKGVPIPNKVIFIRGNEANYYSNATTDEHGLVQFSINTTNVMGTSLTVRVNYKDRSPCYGYQWVSEEHEEAHHTAYLVFSPSKSFVHLEPMSHELPCGHTQTVQAHYILNGGTLLGLKKLSFYYLIMAKGGIVRTGTHGLLVKQEDMKGHFSISIPVKSDIAPVARLLIYAVLPTGDVIGDSAKYDVENCLANKVDLSFSPSQSLPASHAHLRVTAAPQSVCALRAVDQSVLLMKPDAELSASSVYNLLPEKDLTGFPGPLNDQDDEDCINRHNVYINGITYTPVSSTNEKDMYSFLEDMGLKAFTNSKIRKPKMCPQLEQYEMHGPEGEGEGEGIPENFFGVSEDLVVQISELEGRGSVEEPHTKLRKYFPETWIWDLVVVNSAGVAEVGVTVPDTITEWKAGAFCLSEDAGLGISSTASLRAFQPFFVELTMPYSVIRGEAFTLKATVLNYLPKCIRVSVQLEASPAFLAVPVEKEQAPHCICANGRQTVSWAVTPKSLGNVNFTVSAEALESQELCGTEVPSVPEHGRKDTVIKPLLVEPEGLEKETTFNSLLCPSGGEVSEELSLKLPPNVVEESARASVSVLGDILGSAMQNTQNLLQMPYGCGEQNMVLFAPNIYVLDYLNETQQLTPEIKSKAIGYLNTGYQRQLNYKHYDGSYSTFGERYGRNQGNTWLTAFVLKTFAQARAYIFIDEAHITQALIWLSQRQKDNGCFRSSGSLLNNAIKGGVEDEVTLSAYITIALLEIPLTVTHPVVRNALFCLESAWKTAQEGDHGSHVYTKALLAYAFALAGNQDKRKEVLKSLNEEAVKKDNSVHWERPQKPKAPVGHFYEPQAPSAEVEMTSYVLLAYLTAQPAPTSEDLTSATNIVKWITKQQNAQGGFSSTQDTVVALHALSKYGAATFTRTGKAAQVTIQSSGTFSSKFQVDNNNRLLLQQVSLPELPGEYSMKVTGEGCVYLQTSLKYNILPEKEEFPFALGVQTLPQTCDEPKAHTSFQISLSVSYTGSRSASNMAIVDVKMVSGFIPLKPTVKMLERSNHVSRTEVSSNHVLIYLDKVSNQTLSLFFTVLQDVPVRDLKPAIVKVYDYYETDEFAIAEYNAPCSKDLGNADYKDDDDKGASHHHHHH
- Protease Inhibition (% of WT); Protease Mixtures, Collagen Substrate: 250 % of WT
- Protease Inhibition (% of WT); Protease Mixtures, IGD Substrate: 229 % of WT
